Series [1] concerns the target DEP_(414–507)-GFP, minimal DEP domain of DVL2 (UniProt O14641). The experiment in a line: FZD5-dependent PM recruitment of DEP-GFP (cell scoring). The following applies: 100 cells scored in each case, label printed as 'T526A:S529', new residue at 529 not given, read off a plot.
Series [2] concerns the molecule itself. Nature of the series: SEC-MALS; purified Lip-DEP_(416–511), WT or mutant, unfractionated or purified fractions; PBS, GE Superdex S-200 10/300 analytical column.

“And” between values parts separate entries of the source, which are not always exact repeats. Identical values can stand only once.

Turning to “SNAP-FZD5 (Frizzled 5), wild type (from UniProt Q13467) T526A:S529”, in series [1] (parent: est. 52), the other: % of cells with strong PM recruitment was 3 % of cells. Besides, in series [1] (parent: est. 88), the other: % of cells with strong or weak PM recruitment (top of weak segment) was 24 % of cells.

B1: Lip-DEP_(416–511) L445E (domain or fragment, human, UniProt O14641 416-511, looked up)
chain: GLSVHTDMASVTKAMAAPESGLEVRDRMWEKITIPNAFLGSDVVDWLYHHVEGFPERREARKYASGLLKAGLIRHTVNKITFSEQCYYVFGDLSGG
notes: Dishevelled 2 (DVL2), human, DEP domain, residues 416-511; source: E. coli BL21-CodonPlus(DE3)-RIL, purified
Regarding B1, the binding result in series [2] is on record as “binds”.

B2: Lip-DEP_(416–511), lipoyl-tagged DEP domain of DVL2 (domain or fragment, human, UniProt O14641 416-511, looked up)
chain: GLSVHTDMASVTKAMAAPESGLEVRDRMWLKITIPNAFLGSDVVDWLYHHVEGFPERREARKYASGLLKAGLIRHTVNKITFSEQCYYVFGDLSGG
notes: Dishevelled 2 (DVL2), human, DEP domain, residues 416-511; Purified essentially as in Fiedler et al., 2011; details in the Supplemental Information; also called purified DEP; wt; source: E. coli BL21-CodonPlus(DE3)-RIL, purified (SEC)
By stoichiometry N is commonly meant a count of units in the complex or per binding partner. As for B2, in series [2], the “stoichiometry N” value was 2 and 4.

B3: Lip-DEP_(416–511) MLI > AAA (domain or fragment, human, UniProt O14641 416-511, looked up)
chain: GLSVHTDMASVTKAMAAPESGLEVRDRAWAKATIPNAFLGSDVVDWLYHHVEGFPERREARKYASGLLKAGLIRHTVNKITFSEQCYYVFGDLSGG
notes: Dishevelled 2 (DVL2), human, DEP domain, residues 416-511; the hydrophobic triad M443, L445, I447 changed to alanines; also called triple-alanine mutation of the hydrophobic triad; source: E. coli BL21-CodonPlus(DE3)-RIL, purified
In the case of B3, the binding result in series [2] is “binds”.

Source of the values: PMC5065529, “Wnt Signalosome Assembly by DEP Domain Swapping of Dishevelled” (Molecular Cell, 2016).
